Test [1] addresses T1, 重组蛋白PD-1-Fc (GenScript, Z03370): human PD-1 extracellular domain fused to human IgG1 Fc (human, UniProt Q15116 25-170).
T1 construct: extracellular domain; Bought reagent (GenScript Z03370); also called PD-1-Fc重组蛋白; PD-1-Fc融合蛋白; not shown: human IgG1 Fc segment
The experiment in a line: indirect ELISA, PD-1-Fc coated at 0.5 μg/ml.

Test [2] deals with T2, 重组人PD-1蛋白 (recombinant human PD-1 protein) (human, UniProt Q15116 25-167, limits assumed).
T2 construct: also called 重组蛋白PD-1
T2 sequence (Q15116 25-167 limits assumed): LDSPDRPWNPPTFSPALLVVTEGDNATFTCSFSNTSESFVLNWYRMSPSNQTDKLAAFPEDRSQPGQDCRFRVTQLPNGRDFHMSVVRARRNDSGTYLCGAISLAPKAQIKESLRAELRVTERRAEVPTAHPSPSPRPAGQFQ
The experiment in a line: competition ELISA: human PD-1 coated, biotin-PD-L1-Fc 0.15 μg/ml as competitor. (In general: An ELISA detects its analyte on a solid surface through an enzyme-linked reagent.)

Test [3] has as its target human PD-1 expressed on cells (human, UniProt Q15116 25-288). The experiment in a line: cell-based or functional assay.

The results in this text go back to patent publication CN108203464A (GENSCRIPT NANJING CO LTD, dated 2018).

Sequence of human PD-1 expressed on cells (Q15116 25-288): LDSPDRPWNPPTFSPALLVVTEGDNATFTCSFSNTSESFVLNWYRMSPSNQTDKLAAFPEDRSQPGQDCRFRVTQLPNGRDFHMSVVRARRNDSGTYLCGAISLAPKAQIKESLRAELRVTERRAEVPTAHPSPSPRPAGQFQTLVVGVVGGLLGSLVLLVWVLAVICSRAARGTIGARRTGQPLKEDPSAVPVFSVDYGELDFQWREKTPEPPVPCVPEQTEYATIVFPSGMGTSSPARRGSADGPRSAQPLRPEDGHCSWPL
T1 sequence (Q15116 25-170 limits assumed, one chain of several): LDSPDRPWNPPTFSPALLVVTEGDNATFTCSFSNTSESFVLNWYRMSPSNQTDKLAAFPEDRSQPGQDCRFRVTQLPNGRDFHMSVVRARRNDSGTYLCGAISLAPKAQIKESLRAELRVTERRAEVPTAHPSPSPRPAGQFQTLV

B1: 1H10C4D4 (antibody, V domains shown)
VH: EVKLVESGGGLVKPGGSLKLSCAASGFTFSSYDMSWVRQTPDKRLEWVATISGGGSYTYYPDSVKGRFTISRDNAKNNLYLQMSSLRSEDTALYYCGSPYGKYGMEYWGQGTSVTVSS
VL: DIVMTQSHKFMSTSVGDRVSITCKASQDVGSVVAWYQQKPGQSPKLLIYWASTRHTGVPDRFTGSGSGTDFTLTISNVQSEDLADYFCQQYSSYPLTFGSGTKLELK
notes: Detected with goat anti-mouse IgG
B1: the 50% effective concentration (EC50) in test [1] was determined as 0.00681 µg/mL. For the same molecule, the half-inhibitory concentration (IC50) in test [2] came to 0.493 µg/mL. For the same molecule, in test [3], the “IL-2 secretion, mixed lymphocyte reaction (CD4+ T cells + allogeneic dendritic cells), EC50” value was determined as 0.064 μg/ml and the “RLU, NFAT-RE reporter effector cells (PD-1) co-cultured with PD-L1 target cells, EC50” value (“RLU, NFAT-RE reporter effector cells” for short) came to 1.13 µg/mL.

B2: 154G5A5B7 (antibody, V domains shown)
VH: QVQLKESGPGLVAPSQSLSITCTVSGFSLTVYGVNWVRQPPGKGLEWLGMIWGDGTTDYNSALKSRLIINKDNSKSQVFLKMNSLQTDDTARYYCARDDYGTFLYWGQGTLVTVSA
VL: DIVMSQSPSSLAVSAGEKVTMSCKSSQSLLNSRTRKNYLAWYQQKPGQSPKLLIFWASTRESGVPDRFTGSVSGTDFTLTISSVQAEDLAVYYCKQSYTLRTFGGGTKLEIK
For the molecule B2, the half-maximal effective concentration (EC50) in test [1] came out at 0.00872 µg/mL. In addition, the IC50 in test [2] was found to be 0.366 µg/mL. For the same molecule, in test [3], the “IL-2 secretion, mixed lymphocyte reaction (CD4+ T cells + allogeneic dendritic cells), EC50” value was found to be 1.12 μg/ml and the “RLU, NFAT-RE reporter effector cells” value was 1.42 µg/mL.

B3: 2E5E4D11 (antibody, V domains shown)
VH: EVKLVESGGVLVQPGGSLKLSCAASGFTFSSYTMSWVRQTPEKRLEWVAYISGGGGDTYYPDTVKGRFTISRDNAKNTLYLQMNSLKSGDTAMYYCARHGYDAACFAYWGQGTLVTVSA
VL: DIVMTQSHKFMSTSVGDRVSFTCKASQDVNTAVAWYQQKPGQSPKLLIYWASTRHTGVPDRFTGSGSGTDYTLTISSVQAEDLALYYCQQHYSIPWTVGGGTKLEIK
notes: I took the two as the same clone (likely a misprint); also called 2E5E4E11
In test [1], B3 came in with a concentration giving a half-maximal response (EC50) of 0.00465 µg/mL. Besides, the IC50 in test [2] amounted to 0.429 µg/mL. Moreover, in test [3], the “IL-2 secretion, mixed lymphocyte reaction (CD4+ T cells + allogeneic dendritic cells), EC50” value was found to be 0.929 μg/ml and the “RLU, NFAT-RE reporter effector cells” value is 1.01 µg/mL.

One may read the EC50 as the concentration giving half of the maximal effect. A lower EC50 goes with an effect from little substance. One may read the IC50 as the concentration needed to halve the response being measured.
